{"source": "patent US8242083B2", "about": "“Kinase substrates” (PerkinElmer Health Sciences, Inc., priority 2008, dated 2012)", "type_in_all_cases": "biochemical", "key": {"KDR": {"biological_target": "KDR (Homo sapiens, UniProt P35968)", "sequence (P35968 20-1356, species assumed)": "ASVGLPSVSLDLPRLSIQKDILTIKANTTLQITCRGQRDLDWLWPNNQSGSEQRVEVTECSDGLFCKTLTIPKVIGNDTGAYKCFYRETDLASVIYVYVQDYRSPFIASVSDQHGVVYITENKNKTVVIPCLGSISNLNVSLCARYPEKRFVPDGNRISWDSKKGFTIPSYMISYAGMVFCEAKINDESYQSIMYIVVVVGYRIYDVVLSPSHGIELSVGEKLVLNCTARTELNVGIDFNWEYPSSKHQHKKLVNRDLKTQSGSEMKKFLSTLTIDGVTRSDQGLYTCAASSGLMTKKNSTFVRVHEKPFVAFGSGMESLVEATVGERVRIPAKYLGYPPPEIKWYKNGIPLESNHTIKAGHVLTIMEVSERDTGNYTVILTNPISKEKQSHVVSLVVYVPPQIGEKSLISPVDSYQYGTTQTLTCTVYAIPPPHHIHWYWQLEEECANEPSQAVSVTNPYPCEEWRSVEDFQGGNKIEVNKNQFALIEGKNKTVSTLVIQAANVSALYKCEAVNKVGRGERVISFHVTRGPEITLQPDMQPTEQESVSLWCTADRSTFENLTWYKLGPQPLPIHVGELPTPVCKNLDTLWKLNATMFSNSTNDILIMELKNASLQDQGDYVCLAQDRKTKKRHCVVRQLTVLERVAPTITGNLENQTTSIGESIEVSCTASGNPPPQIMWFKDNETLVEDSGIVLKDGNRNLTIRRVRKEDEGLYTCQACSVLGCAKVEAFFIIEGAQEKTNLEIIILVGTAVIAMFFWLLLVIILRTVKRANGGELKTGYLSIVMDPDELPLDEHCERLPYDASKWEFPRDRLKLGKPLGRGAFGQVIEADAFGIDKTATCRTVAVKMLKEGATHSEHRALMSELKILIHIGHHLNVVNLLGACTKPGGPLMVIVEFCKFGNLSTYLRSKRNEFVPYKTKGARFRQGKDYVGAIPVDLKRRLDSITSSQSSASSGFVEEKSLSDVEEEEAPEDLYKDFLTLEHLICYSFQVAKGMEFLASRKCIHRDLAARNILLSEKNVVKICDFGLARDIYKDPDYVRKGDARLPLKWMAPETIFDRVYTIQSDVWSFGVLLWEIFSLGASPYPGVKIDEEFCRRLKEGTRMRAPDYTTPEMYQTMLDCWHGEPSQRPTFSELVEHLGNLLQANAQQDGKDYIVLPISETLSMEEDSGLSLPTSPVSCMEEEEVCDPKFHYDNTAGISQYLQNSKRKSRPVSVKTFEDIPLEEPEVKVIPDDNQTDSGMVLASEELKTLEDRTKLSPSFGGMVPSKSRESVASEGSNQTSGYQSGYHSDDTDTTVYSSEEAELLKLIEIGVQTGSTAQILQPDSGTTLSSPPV", "test": "TR-FRET kinase assay, KDR", "conditions": "Kinase Concentration 0.25 nM; 50 nM ULight-labeled substrate, 200 micromolar ATP, 2 hours", "experimental": "(§1) TR-FRET kinase assays are performed under standardized conditions: various individual kinases are incubated with 50 nM of kinase substrate BRB1 labeled with the TR-FRET acceptor dye ULight (PerkinElmer) and 200 micromolar ATP in 10 μL of kinase assay buffer (50 mM HEPES pH7.5, 10 mM MgCl2, 3 mM MnCl2, 1 mM EGTA, 2 mM DTT and 0.01% Tween-20) for 2 hours at room temperature. Reactions are stopped with EDTA, and anti-phospho-tyrosine antibodies (clone PT66) labeled with the TR-FRET europium chelate donor dye are added to a final concentration of 2 nM in a final volume of 20 μL. The TR-FRET signal emitted at 665 nm is read one hour after the addition of antibodies using a TR-FRET plate reader such as the Envision® Multilabel Plate reader (PerkinElmer). The emitted signal at 665 nm is proportional to the extent of peptide phosphorylation, Control reactions indicative of background are performed excluding ATP from the reaction.\n(§2) Assay conditions are identical to those used described for FIG. 1."}, "BLK": {"biological_target": "BLK (Homo sapiens, UniProt P51451)", "sequence (P51451 whole entry, species assumed)": "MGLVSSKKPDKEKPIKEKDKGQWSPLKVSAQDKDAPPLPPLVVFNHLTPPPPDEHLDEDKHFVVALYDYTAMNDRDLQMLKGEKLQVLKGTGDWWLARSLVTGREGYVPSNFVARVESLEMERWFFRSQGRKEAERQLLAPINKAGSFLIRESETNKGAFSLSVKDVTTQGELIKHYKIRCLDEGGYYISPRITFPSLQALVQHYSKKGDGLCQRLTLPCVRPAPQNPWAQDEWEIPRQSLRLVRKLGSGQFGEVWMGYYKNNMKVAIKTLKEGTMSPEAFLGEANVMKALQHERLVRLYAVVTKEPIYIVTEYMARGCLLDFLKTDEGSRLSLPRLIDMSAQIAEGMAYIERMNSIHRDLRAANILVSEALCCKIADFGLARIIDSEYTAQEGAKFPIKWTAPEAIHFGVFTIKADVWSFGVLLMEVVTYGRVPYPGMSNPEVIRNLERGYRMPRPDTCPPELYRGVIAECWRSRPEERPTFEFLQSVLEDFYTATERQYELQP", "test": "TR-FRET kinase assay, BLK", "conditions": "Kinase Concentration 0.5 nM; 50 nM ULight-labeled substrate, 200 micromolar ATP, 2 hours", "experimental": "as §1, §2"}, "EphB1": {"biological_target": "T1, EphB1 (Homo sapiens, UniProt P54762)", "T1 sequence (P54762 18-984)": "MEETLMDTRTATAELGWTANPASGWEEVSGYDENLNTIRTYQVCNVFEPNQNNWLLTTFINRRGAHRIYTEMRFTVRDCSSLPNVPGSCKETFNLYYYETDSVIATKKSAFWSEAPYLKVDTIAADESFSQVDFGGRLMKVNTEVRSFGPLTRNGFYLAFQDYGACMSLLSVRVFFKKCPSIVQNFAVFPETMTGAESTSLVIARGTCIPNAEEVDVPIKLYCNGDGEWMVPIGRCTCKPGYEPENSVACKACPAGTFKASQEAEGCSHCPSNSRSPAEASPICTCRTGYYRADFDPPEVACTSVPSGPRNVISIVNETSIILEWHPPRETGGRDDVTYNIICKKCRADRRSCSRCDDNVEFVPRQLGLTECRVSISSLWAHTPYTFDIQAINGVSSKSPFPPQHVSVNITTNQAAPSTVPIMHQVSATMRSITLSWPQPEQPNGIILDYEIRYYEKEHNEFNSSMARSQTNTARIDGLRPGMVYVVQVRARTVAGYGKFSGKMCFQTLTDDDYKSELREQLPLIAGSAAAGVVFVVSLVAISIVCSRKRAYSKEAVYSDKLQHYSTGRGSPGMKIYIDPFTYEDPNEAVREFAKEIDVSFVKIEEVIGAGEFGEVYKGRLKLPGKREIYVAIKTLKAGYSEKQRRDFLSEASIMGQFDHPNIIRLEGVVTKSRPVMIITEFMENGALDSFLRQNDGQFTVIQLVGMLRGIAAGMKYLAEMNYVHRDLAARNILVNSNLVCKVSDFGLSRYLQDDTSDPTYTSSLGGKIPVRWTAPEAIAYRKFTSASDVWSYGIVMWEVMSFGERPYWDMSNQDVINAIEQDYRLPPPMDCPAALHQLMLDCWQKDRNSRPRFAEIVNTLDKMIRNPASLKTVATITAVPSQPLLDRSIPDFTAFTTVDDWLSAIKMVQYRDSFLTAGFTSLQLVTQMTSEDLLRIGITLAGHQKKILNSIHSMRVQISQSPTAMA", "test": "TR-FRET kinase assay, EphB1", "conditions": "Kinase Concentration 0.5 nM; 50 nM ULight-labeled substrate, 200 micromolar ATP, 2 hours", "experimental": "as §1, §2"}, "IRR": {"biological_target": "IRR (Homo sapiens, UniProt P14616)", "sequence (P14616 27-1297, species assumed)": "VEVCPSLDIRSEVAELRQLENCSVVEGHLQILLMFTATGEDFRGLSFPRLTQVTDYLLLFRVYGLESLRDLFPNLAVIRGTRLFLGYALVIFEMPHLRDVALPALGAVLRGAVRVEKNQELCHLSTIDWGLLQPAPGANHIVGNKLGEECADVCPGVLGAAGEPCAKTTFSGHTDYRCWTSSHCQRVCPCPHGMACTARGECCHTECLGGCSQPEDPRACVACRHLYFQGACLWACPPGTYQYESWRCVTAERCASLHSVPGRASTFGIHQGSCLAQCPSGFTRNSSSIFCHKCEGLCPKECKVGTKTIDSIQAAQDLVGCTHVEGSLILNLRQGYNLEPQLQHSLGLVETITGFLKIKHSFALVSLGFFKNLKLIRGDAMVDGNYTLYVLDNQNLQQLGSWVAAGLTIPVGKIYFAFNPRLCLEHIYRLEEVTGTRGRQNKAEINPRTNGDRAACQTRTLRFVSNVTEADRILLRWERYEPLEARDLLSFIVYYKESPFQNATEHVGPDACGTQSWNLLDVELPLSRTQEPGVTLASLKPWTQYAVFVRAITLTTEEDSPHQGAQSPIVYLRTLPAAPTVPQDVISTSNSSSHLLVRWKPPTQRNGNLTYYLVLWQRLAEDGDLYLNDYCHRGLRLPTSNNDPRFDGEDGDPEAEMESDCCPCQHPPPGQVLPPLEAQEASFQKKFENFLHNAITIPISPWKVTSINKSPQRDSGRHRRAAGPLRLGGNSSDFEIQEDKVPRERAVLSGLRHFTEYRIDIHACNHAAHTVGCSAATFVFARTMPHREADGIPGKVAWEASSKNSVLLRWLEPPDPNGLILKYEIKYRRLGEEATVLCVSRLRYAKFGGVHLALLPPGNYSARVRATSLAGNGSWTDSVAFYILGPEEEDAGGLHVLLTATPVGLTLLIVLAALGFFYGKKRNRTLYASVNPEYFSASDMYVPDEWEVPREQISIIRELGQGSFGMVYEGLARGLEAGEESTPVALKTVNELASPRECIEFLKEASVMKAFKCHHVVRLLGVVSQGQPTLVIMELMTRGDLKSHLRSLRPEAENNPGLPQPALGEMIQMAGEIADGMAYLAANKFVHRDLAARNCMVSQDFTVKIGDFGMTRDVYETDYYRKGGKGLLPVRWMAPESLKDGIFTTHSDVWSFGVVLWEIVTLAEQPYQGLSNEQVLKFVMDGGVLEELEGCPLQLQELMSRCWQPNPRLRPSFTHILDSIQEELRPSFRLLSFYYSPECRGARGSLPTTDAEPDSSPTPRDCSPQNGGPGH", "test": "TR-FRET kinase assay, IRR", "conditions": "Kinase Concentration 0.5 nM; 50 nM ULight-labeled substrate, 200 micromolar ATP, 2 hours", "experimental": "as §1, §2"}, "INSR": {"biological_target": "INSR (Homo sapiens, UniProt P06213)", "test": "TR-FRET kinase assay, INSR", "conditions": "Kinase Concentration 20 nM; 50 nM ULight-labeled substrate, 200 micromolar ATP, 2 hours", "experimental": "as §1, §2"}, "EphB2": {"biological_target": "T2, EphB2 (Homo sapiens, UniProt P29323)", "T2 sequence (P29323 19-1055)": "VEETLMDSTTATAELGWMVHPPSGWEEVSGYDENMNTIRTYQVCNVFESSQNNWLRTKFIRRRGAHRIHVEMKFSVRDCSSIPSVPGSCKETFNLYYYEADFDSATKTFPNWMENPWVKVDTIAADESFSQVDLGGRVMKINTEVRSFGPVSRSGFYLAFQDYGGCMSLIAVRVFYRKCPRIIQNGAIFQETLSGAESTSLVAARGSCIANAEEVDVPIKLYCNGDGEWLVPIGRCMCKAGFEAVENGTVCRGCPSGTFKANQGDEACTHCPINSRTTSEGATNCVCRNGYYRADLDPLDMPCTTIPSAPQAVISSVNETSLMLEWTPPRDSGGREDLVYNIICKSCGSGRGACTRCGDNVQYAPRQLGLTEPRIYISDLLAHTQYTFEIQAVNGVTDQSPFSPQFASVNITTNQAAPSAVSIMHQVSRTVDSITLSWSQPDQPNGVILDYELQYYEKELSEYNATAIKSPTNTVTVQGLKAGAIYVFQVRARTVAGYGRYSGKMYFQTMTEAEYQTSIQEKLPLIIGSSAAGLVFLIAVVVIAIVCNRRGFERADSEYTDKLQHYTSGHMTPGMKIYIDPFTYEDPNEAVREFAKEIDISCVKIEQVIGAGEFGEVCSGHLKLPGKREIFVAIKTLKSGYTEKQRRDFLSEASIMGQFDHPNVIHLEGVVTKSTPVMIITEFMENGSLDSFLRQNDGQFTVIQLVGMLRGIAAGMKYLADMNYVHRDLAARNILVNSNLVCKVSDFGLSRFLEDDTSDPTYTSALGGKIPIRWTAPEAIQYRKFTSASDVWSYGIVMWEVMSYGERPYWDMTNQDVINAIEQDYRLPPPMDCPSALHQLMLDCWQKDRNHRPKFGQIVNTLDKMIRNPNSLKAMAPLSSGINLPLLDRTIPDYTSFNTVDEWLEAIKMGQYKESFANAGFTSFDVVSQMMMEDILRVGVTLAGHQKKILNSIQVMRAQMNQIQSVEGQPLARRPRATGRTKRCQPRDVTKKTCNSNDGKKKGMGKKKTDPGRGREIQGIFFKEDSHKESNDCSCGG", "test": "TR-FRET kinase assay, EphB2", "conditions": "Kinase Concentration 0.25 nM; 50 nM ULight-labeled substrate, 200 micromolar ATP, 2 hours", "experimental": "as §1, §2"}}}
{"sequence": "C AYE AYE AYE K EYA EYA EYA K AYA EYE R (CAYEAYEAYEKEYAEYAEYAKAYAEYER; tyrosine kinase substrate peptide) [BRB1]", "values": [{"measurement": "Signal to Noise ratio with BRB1 Peptide", "setting": "KDR", "value": 16.9}, {"measurement": "Signal to Noise ratio with BRB1 Peptide", "setting": "BLK", "value": 31.0}, {"measurement": "Signal to Noise ratio with BRB1 Peptide", "setting": "EphB1", "value": 29.9}, {"measurement": "Signal to Noise ratio with BRB1 Peptide", "setting": "IRR", "value": 19.2}, {"measurement": "Signal to Noise ratio with BRB1 Peptide", "setting": "INSR", "value": 4.0}, {"measurement": "Signal to Noise ratio with BRB1 Peptide", "setting": "EphB2", "value": 28.8}]}
